Here are results for two molecules from PMC11327461, “Exogenous serpin B1 restricts immune complex-mediated NET formation via inhibition of a chymotrypsin-like protease and enhances microbial phagocytosis” (The Journal of Biological Chemistry, 2024).

The assay concerns the target T1, recombinant human serpin B1, wild type (C344) (human, UniProt P30740 1-379).
T1 construct: serpin B1, human, recombinant, wild type (C344); non-glycosylated, 42 kDa by the discussion; also called rhsB1; sB1; source: yeast S. cerevisiae, purified
T1 sequence (looked up): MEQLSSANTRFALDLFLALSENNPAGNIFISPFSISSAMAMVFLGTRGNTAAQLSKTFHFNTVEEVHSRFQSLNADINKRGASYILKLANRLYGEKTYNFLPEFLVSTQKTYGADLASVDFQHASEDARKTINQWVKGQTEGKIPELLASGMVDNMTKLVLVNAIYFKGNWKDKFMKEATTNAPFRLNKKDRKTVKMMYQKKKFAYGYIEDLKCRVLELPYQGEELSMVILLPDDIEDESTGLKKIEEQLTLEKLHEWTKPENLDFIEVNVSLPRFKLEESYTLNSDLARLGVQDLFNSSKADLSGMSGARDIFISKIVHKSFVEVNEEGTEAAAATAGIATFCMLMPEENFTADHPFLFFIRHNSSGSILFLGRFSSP
The assay is described as follows: formation of SDS- and heat-stable serpin-protease complexes, SDS-PAGE; 2 uL of hNE, hPR3 or hCG (23.4 uM each) mixed with each sB1 protein at 1:1 molar ratio in 20 uL PBS, pH 7.4, 15 min; stopped with protease inhibitor mix; reducing sample buffer, heated, SDS-PAGE. Particulars: both partners purified.

B1: cathepsin G (enzyme, human, UniProt P08311 21-244, looked up)
chain: IIGGRESRPHSRPYMAYLQIQSPAGQSRCGGFLVREDFVLTAAHCWGSNINVTLGAHNIQRRENTQQHITARRAIRHPQYNQRTIQNDIMLLQLSRRVRRNRNVNPVALPRAQEGLRPGTLCTVAGWGRVSMRRGTDTLREVQLRVQRDRQCLRIFGSYDPRRQICVGDRRERKAAFKGDSGGPLLCNNVAHGIVSYGKSSGVPPEVFTRVSSFLPWIRTTMRS
notes: cathepsin G (hCG), neutrophil serine protease; also called hCG; Cat G; source: bought: Athens Research and Technology
In the case of B1, the binding result is reported as “binds”.

B2: proteinase 3 (enzyme, human, UniProt P24158 28-248, looked up)
chain: IVGGHEAQPHSRPYMASLQMRGNPGSHFCGGTLIHPSFVLTAAHCLRDIPQRLVNVVLGAHNVRTQEPTQQHFSVAQVFLNNYDAENKLNDVLLIQLSSPANLSASVATVQLPQQDQPVPHGTQCLAMGWGRVGAHDPPAQVLQELNVTVVTFFCRPHNICTFVPRRKAGICFGDSGGPLICDGIIQGIDSFVIWGCATRLFPDFFTRVALYVDWIRSTLR
notes: hPR3, neutrophil serine protease; also called hPR3; PR3; source: bought: Athens Research and Technology
B2: the binding result was “binds”.
